Experimental data taken from PMC7559355.
Where two headings read alike, the source gives them in different places.

Legend:
[1] = target: Radiolabeled FabA (3H-labeled FabA) (rabbit)
[2] = target: FabA (rabbit Fab with the anti-HSA nanobody ALB8 fused to the C-terminus of the heavy chain) (rabbit); assay: SPR; Fab captured by its His6 tag on an immobilised anti-His antibody (CM3 chip, about 15 RU); albumin 22.2-1800 nM injected; HBS-P+ (10 mM HEPES, 150 mM NaCl, pH 7.4, 0.05% P20), 25 °C; Langmuir 1:1 model
[3] = target: FabA (rabbit Fab with the anti-HSA nanobody ALB8 fused to the C-terminus of the heavy chain) (rabbit); assay: as above; remark: listed apart in the source
[4] = target: Radiolabeled FabA (3H-labeled FabA) (rabbit); assay: as above
[5] = target: Radiolabeled FabA (3H-labeled FabA) (rabbit); assay: SEC; radio-SEC of dosing formulations, 3H-FabA with equimolar albumin; 100 mM sodium phosphate pH 7.4, 10% ethanol
[6] = target: Radiolabeled FabA (3H-labeled FabA) (rabbit); assay: SEC; radio-SEC; 3H-FabA (0.57 or 5.7 µM) incubated in cynomolgus monkey vitreous humor at endogenous albumin (0.53 µM), 37 °C
[7] = target: Radiolabeled FabA (3H-labeled FabA) (rabbit); assay: SEC; radio-SEC; 3H-FabA (0.57 or 5.7 µM) incubated in cynomolgus monkey vitreous humor supplemented with 50, 100 and 250 µM CSA, 37 °C

Substance “Human serum albumin (from UniProt P02768 25-609) (natural protein)” has a vitreous humor exposure (AUCinf) of 3H-FabA in rabbits after intravitreal injection of 0.05 mg co-formulated with 1 or 15 nmol HSA (104 and 230 h∙nmol/mL; FabB control with 1 nmol HSA 72.8) [1] of 230 nmol·h/mL, a vitreous humor half-life (t1/2) of 3H-FabA in rabbits after intravitreal injection of 0.05 mg co-formulated with 1 or 15 nmol HSA (58.0 and 149 h; FabB control with 1 nmol HSA 52.1 h) [1] of 149 h and a Kd [2] of 0.055 µM. It also gave a Kd [3] of 0.099 µM and a Kd [4] of 0.097 µM.

For “Cynomolgus serum albumin (from UniProt A2V9Z4 25-608) (natural protein)”, the stoichiometry N [5] was 1, the stoichiometry N [6] was 1 and the stoichiometry N [7] was 2. For the same substance, the Kd [2] was 0.066 µM, the koff [2] was 0.0065 s⁻¹ and the kon [2] was 99000 M⁻¹ s⁻¹.
